According to article PMC5718999:

Experiments:
[1] = molecular target: genetically engineered calmodulin (CaM) with cysteine on N-terminus (UniProt P0DP23); assay: atomic force microscopy (height of the immobilised protein pattern); CaM immobilised by cysteine-Hg-SH coupling on MUTMS patterns on OTS-coated silicon; soaked 10 min in 1 g mL^-1 CaM KI binding domain solution at 4 °C, rinsed with buffer; imaged in air, ac mode, 75% relative humidity, 25 °C; height from topography histograms
[2] = molecular target: genetically engineered calmodulin (CaM) with cysteine on N-terminus (UniProt P0DP23); assay: atomic force microscopy (height of the immobilised protein pattern); CaM immobilised by cysteine-Hg-SH coupling on MUTMS patterns on OTS-coated silicon; soaked 10 min in CaM KI binding domain solution at 4 °C, rinsed with buffer; imaged in air, ac mode, 75% relative humidity, 25 °C; height from topography histograms

- increase of the height of the CaM layer [1]: 11.3 Å
- apparent height above OTS of the KIBD-CaM pattern [2]: 4.2 nm
Substance: Calmodulin-dependent protein kinase I (299-320) binding domain (from UniProt Q63450 299-320) (peptide)
